Earlier results on one substance are cited in article PMC3758474.

In one data set the target is Grb7 SH2 (Homo sapiens) (UniProt Q14451).
Data set [1] concerns the target erbB2 pY1139 peptide pY1139 peptide (Homo sapiens) (UniProt P04626). Briefly: ITC. For orientation: In ITC the heat of successive injections is recorded.

For the substance Grb7 SH2 (from UniProt Q14451), the Kd – broadly, the constant that tells how readily two partners part at equilibrium – in the data set with Grb7 SH2 (Homo sapiens) was 11 µM; in data set [1], 2.28 µM.
